Consider 1 molecule from US20220025025A1 (IBEX BIOSCIENCES, published 2022).

The target in the assay is T1, filamin-A (human, UniProt P21333 2-2647).
T1 construct: whole, on cells; Endogenous filamin-A of human cell lines; No purified filamin-A was used; also called FLNA; FLNa
The experiment in a line: flow cytometry, surface staining of SKNAS (human neuroblastoma) cells, 2 µg primary antibody. How it is done: B411 surface staining on several different cell types was conducted. Cells were plated at a concentration of 0.5-1.0 million cells per well, and incubated overnight. Cells were then lifted from the wells, washed, and resuspended in flow cytometry media with 2 μg of primary antibody for 1 hour on ice. Cells were washed and incubated with the secondary antibody (5 μg/ml) for 30 minutes on ice. Cells were washed again and analyzed by flow cytometry.
Background: Flow cytometry measures light scatter and fluorescence of single cells or particles in a stream.

T1 sequence (P21333 2-2647): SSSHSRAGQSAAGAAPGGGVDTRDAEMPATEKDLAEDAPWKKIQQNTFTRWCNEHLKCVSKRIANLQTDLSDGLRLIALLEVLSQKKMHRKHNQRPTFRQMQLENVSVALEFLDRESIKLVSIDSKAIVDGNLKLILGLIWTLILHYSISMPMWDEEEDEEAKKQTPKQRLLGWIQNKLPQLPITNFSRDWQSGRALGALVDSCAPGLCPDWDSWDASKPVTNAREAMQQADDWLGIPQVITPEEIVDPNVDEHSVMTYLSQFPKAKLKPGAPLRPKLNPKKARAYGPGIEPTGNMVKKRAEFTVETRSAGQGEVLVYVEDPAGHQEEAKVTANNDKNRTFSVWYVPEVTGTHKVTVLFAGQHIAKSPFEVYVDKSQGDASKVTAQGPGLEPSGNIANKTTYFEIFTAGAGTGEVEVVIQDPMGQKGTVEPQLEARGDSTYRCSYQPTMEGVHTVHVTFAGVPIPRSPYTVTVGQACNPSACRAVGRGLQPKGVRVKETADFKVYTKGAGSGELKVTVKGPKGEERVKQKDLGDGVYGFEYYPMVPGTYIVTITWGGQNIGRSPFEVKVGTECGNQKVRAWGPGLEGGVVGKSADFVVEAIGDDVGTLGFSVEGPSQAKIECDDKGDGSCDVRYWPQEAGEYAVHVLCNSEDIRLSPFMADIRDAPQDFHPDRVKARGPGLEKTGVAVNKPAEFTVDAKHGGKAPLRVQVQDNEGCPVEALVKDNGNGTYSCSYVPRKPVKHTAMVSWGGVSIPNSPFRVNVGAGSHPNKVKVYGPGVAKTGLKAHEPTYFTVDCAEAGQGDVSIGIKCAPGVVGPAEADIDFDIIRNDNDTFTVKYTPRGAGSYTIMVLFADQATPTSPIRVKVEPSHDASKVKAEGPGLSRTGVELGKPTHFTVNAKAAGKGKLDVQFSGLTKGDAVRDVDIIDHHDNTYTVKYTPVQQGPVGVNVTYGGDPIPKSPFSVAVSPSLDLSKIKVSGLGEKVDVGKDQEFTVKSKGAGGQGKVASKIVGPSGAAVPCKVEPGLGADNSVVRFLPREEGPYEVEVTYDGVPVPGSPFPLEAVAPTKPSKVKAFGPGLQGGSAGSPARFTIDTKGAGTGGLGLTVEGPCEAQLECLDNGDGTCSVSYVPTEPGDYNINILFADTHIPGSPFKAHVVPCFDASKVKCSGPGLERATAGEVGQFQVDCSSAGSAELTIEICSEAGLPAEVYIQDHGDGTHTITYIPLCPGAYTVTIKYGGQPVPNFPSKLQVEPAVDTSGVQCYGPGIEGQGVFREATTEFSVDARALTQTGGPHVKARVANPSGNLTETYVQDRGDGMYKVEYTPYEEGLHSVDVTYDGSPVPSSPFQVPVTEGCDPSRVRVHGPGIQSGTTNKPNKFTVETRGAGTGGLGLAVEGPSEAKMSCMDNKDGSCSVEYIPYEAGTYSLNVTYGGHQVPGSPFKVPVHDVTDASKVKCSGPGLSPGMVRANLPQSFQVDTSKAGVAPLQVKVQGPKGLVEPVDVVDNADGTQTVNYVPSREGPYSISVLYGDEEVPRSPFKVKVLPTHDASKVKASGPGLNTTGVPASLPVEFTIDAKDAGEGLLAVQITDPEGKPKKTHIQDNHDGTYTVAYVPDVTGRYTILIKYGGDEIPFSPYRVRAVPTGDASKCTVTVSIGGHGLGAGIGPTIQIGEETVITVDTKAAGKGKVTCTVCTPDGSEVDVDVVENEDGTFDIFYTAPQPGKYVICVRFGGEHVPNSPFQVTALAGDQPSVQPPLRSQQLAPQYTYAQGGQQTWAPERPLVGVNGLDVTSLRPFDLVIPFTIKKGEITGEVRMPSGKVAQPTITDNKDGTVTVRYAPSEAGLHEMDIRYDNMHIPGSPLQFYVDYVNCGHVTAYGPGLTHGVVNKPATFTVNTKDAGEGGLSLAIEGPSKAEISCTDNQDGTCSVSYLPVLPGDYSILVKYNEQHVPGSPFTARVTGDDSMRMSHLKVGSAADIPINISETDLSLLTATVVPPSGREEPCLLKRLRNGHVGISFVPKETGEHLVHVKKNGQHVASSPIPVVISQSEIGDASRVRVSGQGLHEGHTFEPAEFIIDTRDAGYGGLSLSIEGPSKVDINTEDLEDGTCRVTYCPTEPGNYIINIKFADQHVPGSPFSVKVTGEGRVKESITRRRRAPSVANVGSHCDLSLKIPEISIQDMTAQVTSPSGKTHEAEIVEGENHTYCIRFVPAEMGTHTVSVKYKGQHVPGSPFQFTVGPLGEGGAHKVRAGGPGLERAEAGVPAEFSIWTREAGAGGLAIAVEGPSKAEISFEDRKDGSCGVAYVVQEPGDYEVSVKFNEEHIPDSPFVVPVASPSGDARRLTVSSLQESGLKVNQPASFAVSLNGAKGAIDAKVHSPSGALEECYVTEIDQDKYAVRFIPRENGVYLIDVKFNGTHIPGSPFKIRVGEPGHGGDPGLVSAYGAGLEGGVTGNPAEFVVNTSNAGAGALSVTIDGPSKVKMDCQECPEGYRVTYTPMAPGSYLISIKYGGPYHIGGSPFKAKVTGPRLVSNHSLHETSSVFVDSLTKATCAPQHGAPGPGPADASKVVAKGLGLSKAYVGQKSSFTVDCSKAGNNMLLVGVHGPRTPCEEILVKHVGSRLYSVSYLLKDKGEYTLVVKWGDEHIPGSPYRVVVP

B1: anti-filamin-A antibody B411 (antibody, human IgG1, kappa, V domains shown)
VH: EVKLVESGGGLVQPGGSLKLSCAASGFTFSSYTMSWVRQTPEKRLEWVAYISNGGGSTYYPDTVKGRFTISRDNAKNTLYLQMSSLKSEDTAMYYCASDGIIRPFAYWGQGTLVTVSA
VL: DIVMTQSHKFMSTSVGDRVSITCKASQDVSLDVAWYQQKPGQSPKLLIYSASHRYTGVPDRFTGSGSGTDFTFTISGVQAEDLAVYFCQQHYSTPLTFGAGTKLELKR
notes: also called B4111
Turning to B1, the binding result is “binds”.
